We go through two molecules from PMC3843637 (Science signaling, 2013).

B2: S2LMH2EEE Y366A-W368A (domain or fragment)
chain: not shown

Several values for one entry are separate records, joined by “and”; a condition that tells them apart may be missing. Equal values may be shown once.

One data set addresses T1, PPM1A (human, UniProt P35813 1-382).
T1 sequence (looked up): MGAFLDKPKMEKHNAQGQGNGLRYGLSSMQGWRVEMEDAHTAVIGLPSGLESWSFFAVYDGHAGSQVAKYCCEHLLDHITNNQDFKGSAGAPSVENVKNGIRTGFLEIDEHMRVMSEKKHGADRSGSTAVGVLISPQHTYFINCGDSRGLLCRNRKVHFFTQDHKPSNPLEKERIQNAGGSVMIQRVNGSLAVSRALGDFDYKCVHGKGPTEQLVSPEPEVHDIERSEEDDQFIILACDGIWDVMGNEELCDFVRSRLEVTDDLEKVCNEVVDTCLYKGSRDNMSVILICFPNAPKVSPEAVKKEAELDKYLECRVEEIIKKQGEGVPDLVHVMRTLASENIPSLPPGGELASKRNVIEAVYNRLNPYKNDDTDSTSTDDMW
As to the kind of experiment: NMR titration.

In the data set “S2LMH2EEE Y366A-W368A” the target is B2. Description: ITC. On the technique in general: In ITC the heat of successive injections is recorded.
Data set [1] deals with S2LMH2EEE/S4LMH2 heterotrimer (human, UniProt Q15796 186-467; Q13485 273-552, SSMS to EEME). Description: ITC.
The data set “SEC” deals with the molecule itself. Description: SEC.

B1: MAN1 fragment from amino acids 755 to 911 (MAN1Luhm) (domain or fragment, human, UniProt Q9Y2U8 755-911, looked up)
chain: DKILVIPSKVWQGQAFHLDRRNSPPNSLTPCLKIRNMFDPVMEIGDQWHLAIQEAILEKCSDNDGIVHIAVDKNSREGCVYVKCLSPEYAGKAFKALHGSWFDGKLVTVKYLRLDRYHHRFPQALTSNTPLKPSNKHMNSMSHLRLRTGLTNSQGSS
As a reminder, the Kd is the constant that tells how readily two partners part at equilibrium. A higher Kd goes with a looser complex. For B1, in the data set with PPM1A, the binding result is given as “binds”. In addition, in the data set with S2LMH2EEE Y366A-W368A, the Kd was 37.9 µM and 33.9 µM; the dH is -1.6 kcal/mol and -1.4 kcal/mol. In addition, in data set [1], the Kd was 1.25 µM and 1.3 µM; the dH is -8.4 kcal/mol.

B2: in the data set “SEC”, the binding result is recorded as “binds”.
